Values quoted from earlier work, collected in patent US20100120660A1, “HIGHLY CONCENTRATED INSULIN SOLUTIONS AND COMPOSITIONS” (priority 2007, published 2010).

porcine insulin
stability of insulin in highly concentrated solution (acidic pH): not stable due to deamidation and polymerisation
concentration of stable insulin solutions (comprising zinc, neutral pH): up to 6 mM
